Measured values published in paper doi:10.1101/2021.06.23.449282.
pKi: −log10 of the molar value.

Biological target: directed activation strategy TMPRSS2 (activated TMPRSS2 ectodomain, residues 109-492, DDDDK255 activation motif) (human) (UniProt O15393)
Test: enzyme inhibition assay

Substance: sunflower trypsin inhibitor-1 (from UniProt Q4GWU5 40-56) (peptide)
- pKi: 6.40
